Assay results from patent publication US20250388646A1.

Legend:
Test in all cases: cell-based or functional assay
[1] = molecular target: FAS-(41BB) construct (UniProt Q07011)
[2] = molecular target: FAS-(CD27) Fas redirector
[3] = molecular target: FAS-(MyD88-CD40) Fas redirector
[4] = molecular target: dominant negative Fas receptor (dnFAS)

Measured: percentage of viable cells after 24 hours of exposure to CH11

UniProt Q07011, sequence (Q07011 other isoform, or with tags, fused parts or gaps): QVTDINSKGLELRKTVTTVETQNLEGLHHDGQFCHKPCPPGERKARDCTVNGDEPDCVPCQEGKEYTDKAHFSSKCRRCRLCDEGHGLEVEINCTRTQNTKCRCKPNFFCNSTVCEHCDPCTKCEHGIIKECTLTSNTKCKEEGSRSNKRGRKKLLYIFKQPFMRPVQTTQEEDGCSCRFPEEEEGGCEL
FAS-(CD27) Fas redirector, sequence (chain, as listed by the source): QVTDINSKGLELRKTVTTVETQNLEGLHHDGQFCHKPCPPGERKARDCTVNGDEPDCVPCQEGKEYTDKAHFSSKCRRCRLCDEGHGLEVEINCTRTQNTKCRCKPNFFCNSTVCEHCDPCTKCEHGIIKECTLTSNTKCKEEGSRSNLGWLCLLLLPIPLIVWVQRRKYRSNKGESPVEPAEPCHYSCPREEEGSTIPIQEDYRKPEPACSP
FAS-(MyD88-CD40) Fas redirector, sequence (chain, as listed by the source): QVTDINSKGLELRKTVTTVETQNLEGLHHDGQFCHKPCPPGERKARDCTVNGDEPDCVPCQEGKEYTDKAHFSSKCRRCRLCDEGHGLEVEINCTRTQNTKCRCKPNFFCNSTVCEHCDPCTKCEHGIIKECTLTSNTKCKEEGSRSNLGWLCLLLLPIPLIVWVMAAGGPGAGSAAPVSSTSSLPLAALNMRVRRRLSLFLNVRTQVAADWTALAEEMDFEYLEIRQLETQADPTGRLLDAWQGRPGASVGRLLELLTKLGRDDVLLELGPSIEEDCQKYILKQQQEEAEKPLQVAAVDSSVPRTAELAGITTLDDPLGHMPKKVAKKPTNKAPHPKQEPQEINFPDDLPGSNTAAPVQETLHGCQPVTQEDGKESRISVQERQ

CH11 (Sigma-Aldrich), a Fas agonist (antibody)
> 60%: all assays above
